For assay [1], the target named is T1, human SIRPβL ECD recombinant protein (6×His tagged) (human, UniProt Q5TFQ8 30-371).
T1 construct: given variously as SIRPBL, SIRPBI and SIRPβI; Bought from Biointron; also called human SIRPBL ECD; human SIRPBI ECD
Briefly: ELISA, hSIRPβI ECD. From the text:
(§1) Binding activity of the purified chimeric antibodies against SIRPβ and SIRPBI was detected by ELISA assay using recombinant proteins of human SIRPβ ECD (FIGS. 3A and 3B), human SIRPBI ECD (FIGS. 3D and 3E) and FACS assay using CHOK 1 cells stably expressing human SIRPB (FIG. 3C).

For assay [2], the target named is full length human SIRPα v1 with a small beta-gal fragment (ED) fused to its C-terminal, expressed in K562 … (human, UniProt P78324 31-504). Briefly: cell-based or functional assay.
The target in assay [3] is T2, full length human SIRPα v1 stably expressed on CHOK1 or 293F cells (human, UniProt P78324 31-504).
T2 construct: whole, on cells; also called CHOK1-human SIRPα v1; CHOK1-hSIRPα v1
Briefly: FACS, CHOK1-hSIRPα v1 cells. (Flow cytometry measures light scatter and fluorescence of single cells or particles in a stream.)

For assay [4], the target named is T3, human SIRPγ stably expressed on 293F cells (human, UniProt Q9P1W8 29-387).
T3 construct: whole, on cells
The assay can be described thus: FACS, 293F-human SIRPγ cells.

In assay [5] the target is Human SIRPα v1 (antigen of the Octet and Biacore affinity measurements) (human, UniProt P78324 31-370, limits assumed). The assay can be described thus: SPR (Biacore), 1:1 binding model. How it is done: The humanized antibodies were characterized for binding affinity against human SIRPα v1, human SIRPα v2 using Surface Plasmon Resonance technology (Biacore system). The association and dissociation curves were fit with 1:1 binding model, and the Ka/Kd/KD values for each antibody were calculated.

Assay [6] addresses T4, human SIRPβ ECD recombinant protein (6×His tagged) (human, UniProt O00241 30-371).
T4 construct: extracellular domain; Bought from Sino Biological; also called hSIRPβ ECD; not shown: 6×His tag
Briefly: ELISA, recombinant human SIRPβ ECD.
From the text: as §1
A general note: ELISA stands for enzyme-linked immunosorbent assay.

The target of assay [7] is T1, human SIRPβL ECD recombinant protein …. Briefly: ELISA, recombinant human SIRPβL (SIRPβI) ECD.
From the text: as §1

Assay [8] addresses T5, human SIRPα v1 ECD recombinant protein (tag not given) (human, UniProt P78324 31-373).
T5 construct: extracellular domain; also called biotin labeled soluble human SIRPα v1 ECD recombinant protein; ELISA microplate coated human SIRPα v1 ECD
The assay can be described thus: competitive ELISA, mFc-CD47 ECD on coated SIRPα v1 ECD. How it is done: (§2) Competitive ELISA assay was used to determine whether the purified chimeric antibodies can block CD47 and SIRPα interaction. Briefly, antibody and mFc tagged human CD47 ECD recombinant protein were co-incubated with ELISA microplate coated human SIRPα v1 ECD (FIGS. 6A and 6B) or human SIRPα v2 ECD (FIGS. 7A and 7B) recombinant protein. After washing, HRP labeled anti-mouse Fc 2nd antibody (Sigma) was added and incubated at 37° C. for 1 hour. Then, 100 μl/well of TMB solution (Biotechnology) was added. After incubation for 15 minutes at room temperature, the reaction was stopped by the addition of 50 μl of 1N HCl. OD 450 nm was read. Blocking ratio was determined by blockade of human CD47 ECD recombinant protein binding to ELISA microplate coated human SIRPα ECD recombinant protein. Other than 005, all antibodies as tested can block interaction between human CD47 and different human SIRPα variants.

For assay [9], the target named is T6, human SIRPα v2 ECD recombinant protein (tag not given) (human).
T6 construct: extracellular domain; also called ELISA microplate coated human SIRPα v2 ECD
Briefly: competitive ELISA, mFc-CD47 ECD on coated SIRPα v2 ECD. How it is done:
as §2

The target of assay [10] is T7, human SIRPβ stably expressed on CHOK1 cells (human, UniProt O00241 30-398).
T7 construct: whole, on cells; also called CHOK1-human SIRPB; CHOK1-hSIRPβ
Briefly: FACS, CHOK1-hSIRPβ cells (columns c6 and c7 read as swapped). From the text:
All the humanized antibodies as tested were confirmed to retain the similar activity as the parental antibody of 025c to bind to SIRP family members.

Assay [11] addresses T2, full length human SIRPα v1 stably …. The assay can be described thus: competitive FACS, mFc-CD47 ECD on CHOK1-human SIRPα v1 cells. An outline of the steps:
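Antibody co-incubated with mFc-tagged human CD47 ECD on CHOK1 cells stably expressing human SIRPα v1 or v2; dye-labeled anti-mouse Fc secondary added, 37 °C for 1 h. Fluorescence intensity read; blocking ratio derived from inhibition of CD47 ECD binding to SIRPα-expressing cells.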

Assay [12] addresses T8, mFc tagged human SIRPα v1 ECD recombinant protein (human, UniProt P78324 31-373).
T8 construct: extracellular domain; Bought from Biointron; not shown: mouse IgG Fc (mFc) tag
The assay can be described thus: competitive ELISA binning, mFc-SIRPα v1 ECD; competitor 025c. On the procedure:
(§3) Competitive ELISA assay was used for epitope binning of purified chimeric antibodies. Briefly excessive competitor antibody and mFc tagged human SIRPα v1 ECD recombinant protein were co-incubated with ELISA microplate coated antibody. After washing, HRP labeled anti-mouse Fc 2nd antibody (Sigma) was added and incubated at 37° C. for 1 hour. Then, 100 μl/well of TMB solution (Biotechnology) was added. After incubation for 15 minutes at room temperature, the reaction was stopped by the addition of 50 μl of 1N HCl. OD 450 nm was read. Competition ratio was calculated. The antibodies that can compete each other for binding to SIRPα may have related binding epitopes.

In assay [13] the target is T8, mFc tagged human SIRPα v1 ECD …. Briefly: competitive ELISA binning, mFc-SIRPα v1 ECD; competitor 042c. How it is done:
as §3

T1 sequence (Q5TFQ8 30-371 limits assumed): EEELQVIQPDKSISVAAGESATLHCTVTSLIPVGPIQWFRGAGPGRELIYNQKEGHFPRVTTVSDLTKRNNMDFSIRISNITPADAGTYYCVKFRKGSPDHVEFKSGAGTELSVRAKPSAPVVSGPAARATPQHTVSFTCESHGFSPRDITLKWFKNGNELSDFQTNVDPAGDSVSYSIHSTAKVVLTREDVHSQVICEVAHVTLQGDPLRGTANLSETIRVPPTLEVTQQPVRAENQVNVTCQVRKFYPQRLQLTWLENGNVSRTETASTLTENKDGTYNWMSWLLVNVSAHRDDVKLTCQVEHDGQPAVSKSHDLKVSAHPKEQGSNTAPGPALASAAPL
T2 sequence (P78324 31-504): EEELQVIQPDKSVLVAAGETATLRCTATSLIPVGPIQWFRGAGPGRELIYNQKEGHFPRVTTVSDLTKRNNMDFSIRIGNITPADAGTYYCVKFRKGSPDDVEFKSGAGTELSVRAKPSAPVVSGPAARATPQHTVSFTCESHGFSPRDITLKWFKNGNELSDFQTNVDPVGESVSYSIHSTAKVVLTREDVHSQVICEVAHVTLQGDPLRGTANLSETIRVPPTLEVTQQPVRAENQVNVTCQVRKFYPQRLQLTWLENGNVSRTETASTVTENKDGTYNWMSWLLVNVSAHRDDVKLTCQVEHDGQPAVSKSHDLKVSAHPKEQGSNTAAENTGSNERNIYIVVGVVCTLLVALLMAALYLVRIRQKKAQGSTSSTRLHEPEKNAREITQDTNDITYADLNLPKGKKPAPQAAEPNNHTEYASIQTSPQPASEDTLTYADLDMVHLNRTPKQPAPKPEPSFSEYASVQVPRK
Sequence of Human SIRPα v1 (antigen of the Octet and Biacore affinity measurements) (P78324 31-370 limits assumed): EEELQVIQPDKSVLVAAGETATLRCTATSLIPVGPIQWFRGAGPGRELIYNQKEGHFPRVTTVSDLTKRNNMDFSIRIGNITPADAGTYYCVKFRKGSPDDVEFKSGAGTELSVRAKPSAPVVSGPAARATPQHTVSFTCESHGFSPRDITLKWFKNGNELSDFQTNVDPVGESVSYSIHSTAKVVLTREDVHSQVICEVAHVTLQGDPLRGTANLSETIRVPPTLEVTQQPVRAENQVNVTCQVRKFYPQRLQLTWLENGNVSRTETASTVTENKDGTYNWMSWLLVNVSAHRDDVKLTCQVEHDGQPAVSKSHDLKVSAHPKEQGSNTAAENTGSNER
T7 sequence (O00241 30-398): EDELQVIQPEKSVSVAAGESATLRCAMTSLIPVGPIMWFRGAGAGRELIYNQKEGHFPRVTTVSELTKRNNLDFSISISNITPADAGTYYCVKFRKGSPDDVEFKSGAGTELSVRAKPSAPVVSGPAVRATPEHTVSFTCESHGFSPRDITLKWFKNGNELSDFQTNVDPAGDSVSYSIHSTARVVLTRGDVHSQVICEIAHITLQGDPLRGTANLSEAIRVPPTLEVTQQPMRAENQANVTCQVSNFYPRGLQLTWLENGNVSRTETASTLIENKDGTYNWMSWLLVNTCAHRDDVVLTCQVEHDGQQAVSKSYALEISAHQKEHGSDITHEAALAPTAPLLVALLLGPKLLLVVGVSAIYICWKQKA
T3 sequence (Q9P1W8 29-387): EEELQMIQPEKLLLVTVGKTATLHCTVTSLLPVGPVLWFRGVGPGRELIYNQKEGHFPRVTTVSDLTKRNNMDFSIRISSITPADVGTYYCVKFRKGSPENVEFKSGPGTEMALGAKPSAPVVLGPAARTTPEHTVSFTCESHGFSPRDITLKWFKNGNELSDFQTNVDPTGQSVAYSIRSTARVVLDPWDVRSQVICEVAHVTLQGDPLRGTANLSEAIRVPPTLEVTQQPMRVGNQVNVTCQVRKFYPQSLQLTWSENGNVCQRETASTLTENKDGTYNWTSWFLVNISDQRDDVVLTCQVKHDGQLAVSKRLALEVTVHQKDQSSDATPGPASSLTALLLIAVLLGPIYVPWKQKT
Sequence of full length human SIRPα v1 with a small beta-gal fragment (ED) fused to its C-terminal, expressed in K562 … (P78324 31-504): as the sequence (P78324 31-504) above
T8 sequence (P78324 31-373): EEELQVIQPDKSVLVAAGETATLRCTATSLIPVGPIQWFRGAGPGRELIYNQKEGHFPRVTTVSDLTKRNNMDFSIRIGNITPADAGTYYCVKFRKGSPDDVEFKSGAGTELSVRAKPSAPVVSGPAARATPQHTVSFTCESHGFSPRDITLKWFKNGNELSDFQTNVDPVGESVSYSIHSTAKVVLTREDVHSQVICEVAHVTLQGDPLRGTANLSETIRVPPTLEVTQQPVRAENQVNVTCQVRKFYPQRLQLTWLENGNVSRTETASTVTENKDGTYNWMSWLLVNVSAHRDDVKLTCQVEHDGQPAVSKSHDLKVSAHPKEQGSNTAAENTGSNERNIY
T5 sequence (P78324 31-373): as above
T4 sequence (O00241 30-371): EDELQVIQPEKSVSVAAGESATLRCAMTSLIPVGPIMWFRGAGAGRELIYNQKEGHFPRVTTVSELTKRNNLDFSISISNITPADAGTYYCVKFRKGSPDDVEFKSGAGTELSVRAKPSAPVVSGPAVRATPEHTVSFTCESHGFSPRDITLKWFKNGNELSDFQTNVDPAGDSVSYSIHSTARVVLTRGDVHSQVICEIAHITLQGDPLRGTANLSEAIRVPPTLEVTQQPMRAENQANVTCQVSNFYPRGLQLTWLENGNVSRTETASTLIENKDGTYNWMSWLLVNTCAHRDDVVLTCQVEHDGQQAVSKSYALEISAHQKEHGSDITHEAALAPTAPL

B1: 025c (antibody, V domains shown)
VH: EVQLQQSGAELVKPGASVKLSCTASGFNIKDYYMHWVKQRTEQGLEWIGRIDPEDGETKYAPKFQGKATITADTSSNTAYLQLSSLTSEDTAVYYCDRGLAYWGQGTLVTVSA
VL: QIVLTQSPAIMSASPGEKVTLTCSASSSVSSSYLYWYQQKPGSSPKLWIYSTSNLASGVPARFSGSGSGTSYSLTISSMEAEDAASYFCHQWSSYPYTFGGGTKLEIK
notes: also called chimeric antibody 025c; parental antibody of 025c
The term EC50 denotes the concentration giving half of the maximal effect. Usually Kd stands for the concentration at which binding is half-saturated. A low value points to a tighter complex. By koff is commonly meant a measure of how fast the partners let go of each other. As a reminder, the kon is a measure of how fast the partners come together. Lower therefore signals slow association. The term EC50 (read off the curve) denotes the concentration that produces a half-maximal response. In general, IC50 refers to the concentration needed to halve the response being measured. For B1, the EC50 in assay [1] was determined as 0.33 nM; in assay [3] it was 1.49 nM; in assay [4], 0.11 nM; in assay [10], 0.65 nM. Also, in [1], the “TOP OD450” value was 2.8 OD450. For the same molecule, the “SHP-1 recruitment blocking, IC50” value in assay [2] came to 0.08 nM. Further, the “SHP-1 recruitment blocking, TOP blocking (%)” value in assay [2] worked out at 87%. The “TOP MFI” value in assay [3] is 77600 MFI; in assay [4], 3220 MFI; in [10] it was 72300 MFI. This molecule gave a Kd in assay [5] of 1.53 nM. In addition, the koff in [5] stood at 0.000924 s⁻¹. The kon in [5] turned out to be 602000 M⁻¹ s⁻¹. The “EC50 (read off the curve)” value was approximately 0.04 nM in assay [6] and approximately 0.4 nM in assay [7]. Moreover, the IC50 in assay [8] was determined as 2.12 nM; in assay [9], 2.21 nM; in assay [11], 0.4 nM. Besides, the “TOP blocking (%)” value amounted to 96.5% in [8], 96.5% in assay [9] and 97.6% in assay [11]. Further, the “% Competition” value in [12] came to 93.5%; in [13], 19.1%.

(Values after patent US20250270315A1 (ELPISCIENCE SUZHOU BIOPHARMA, published 2025).)
